Series [1] deals with leucyl oligopeptide of SEQ. ID. NO: 2. Kind of series: Kinetic parameters of aminopeptidase, leucyl oligopeptide substrate. The class given is biochemical. The following applies: 37° C. From the text:
(§1) In order to compare substrate specificity of aminopeptidase of this invention, 2 kinds of substrate were used. In detail, one was synthetic substrates of p-nitroanilide derivative and purchased from Sigma, USA and the other was oligopeptide such as methionyl oligopeptide of SEQ. ID. NO: 1 which have amino acid sequence similar to N-terminus of methionyl HGH and leucyl oligopeptide of SEQ. ID. NO: 2. The oligopeptides of this invention were synthesized.
(§2) In addition oligopeptide was also used as substrate to perform enzyme reaction by using substrate of known concentration and aminopeptidase in buffer containing 0.1M Tris-Cl, 0.1M NaCl to make 500 μl reaction volume. The enzyme reaction was performed at 37° C. and after 5 and 10 min 250 μl of reaction mixture was adopted and added 70% acetic acid to stop the reaction. The reaction mixture was analyzed by performing HPLC chromatography.
(§3) In reaction condition mentioned above, initial velocity of enzyme reaction was measured with varying the substrate concentration. Lineweaver-Burk plot was used to determine Km value and Maximum reaction velocity of aminopeptidase from Bacillus licheniformis. In addition kcat and kcat/Km was determined by using Km value and maximum reaction velocity described above.

Series [2] concerns methionyl oligopeptide of SEQ. ID. NO: 1. Nature of the series: Kinetic parameters of aminopeptidase, methionyl oligopeptide substrate. As to conditions: 37° C. It is filed as biochemical.
Description: as §1, §2, §3

B1: Aeromonas proteolytica aminopeptidase: Aeromonas proteolytica (Vibrio prozeolytica) aminopeptidase (Korean Patent Publication NO. 94-14804), comparison enzyme (protein)
chain: MPPITQQATVTAWLPQVDASQITGTISSLESFTNRFYTTTSGAQASDWIASEWQALSASLPNASVKQVSHSGYNQKSVVMTITGSEAPDEWIVIGGHLDSTIGSHTNEQSVAPGADDDASGIAAVTEVIRVLSENNFQPKRSIAFMAYAAEEVGLRGSQDLANQYKSEGKNVVSALQLDMTNYKGSAQDVVFITDYTDSNFTQYLTQLMDEYLPSLTYGFDTCGYACSDHASWHNAGYPAAMPFESKFNDYNPRIHTTQDTLANSDPTGSHAKKFTQLGLAYAIEMGSATGDTPTPGNQ
For the molecule B1, in series [1], the Michaelis constant (Km) stood at 336 µM and the catalytic constant (kcat) worked out at 70.29 s⁻¹. In addition, in series [2], the Km came to 956 µM and the turnover number (kcat) stood at 3.23 s⁻¹.
